From patent publication US20110250170A1 (PHILOGEN S P A, published 2011)

Biological target: T1, A1 domain of tenascin-C (TNC-A1) (UniProt P24821 1073-1163, limits assumed)
T1 construct: domain: A1; Coupled to Sepharose resin in the immunoreactivity test; also called extra-domain A1 of tenascin-C
T1 sequence (looked up): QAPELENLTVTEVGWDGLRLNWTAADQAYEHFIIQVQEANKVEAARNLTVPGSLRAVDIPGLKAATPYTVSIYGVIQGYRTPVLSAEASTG
Assay: real-time interaction analysis, BIAcore 3000

koff: < 0.01 s⁻¹
B1: F16 human monoclonal antibody (original clone 4A1-F16) (antibody, V domains shown)
VH: EVQLLESGGGLVQPGGSLRLSCAASGFTFSRYGASWVRQAPGKGLEWVSAISGSGGSTYYADSVKGRFTISRDNSKNTLYLQMNSLRAEDTAVYYCAKAHNAFDYWGQGTLVTVSR
VL: SSELTQDPAVSVALGQTVRITCQGDSLRSYYASWYQQKPGQAPVLVIYGKNNRPSGIPDRFSGSSSGNTASLTITGAQAEDEADYYCNSSVYTMPPVVFGGGTKLTVL
